The labels stand for the following.
B1: 146R7 (ligand)
chain: FKIETTPESRYLAQIGDSVSLTCSTTGCESPLFFWRPLLDSPLNGKVTNEGTTSTLTMNPVSFGNEHSYLCTARCESRKLEKGIQVEIYSFPKDPEIHLSGPLEAGKPITVKCSVADVYPFDRLEIDLLKGDHLMKSQEFLEDADRKSLETKSLEVTFTPVIEDIGKVLVCRAKLHIDEMDSVPTVRQAVKELQVYISPGGGSDYKDDDDKGGGSDYKDDDDKGGGSDYKDDDDKGS
notes: Crude CHO-S supernatant, 3x spacer-FLAG tagged
B2: 146R13 (ligand)
chain: FKIETTPESRYLAQIGDSVSLTCSTTGCESPFFFWRPLLDSPLNGKVTNEGTTSTLTMNPVSFGNEHSYLCTARCESRKLEKGIQVEIYSFPKDPEIHLSGPLEAGKPITVKCSVADVYPFDRLEIDLLKGDHLMKSQEFLEDADRKSLETKSLEVTFTPVIEDIGKVLVCRAKLHIDEMDSVPTVRQAVKELQVYISPGGGSDYKDDDDKGGGSDYKDDDDKGGGSDYKDDDDKGS
notes: as for B1
B3: 146R1 (ligand)
chain: FKIETTPESRYLAQIGDSVSLTCSTTGCESPFFFWRPLLDSPLNGKVTNEGTTSTLTMNPVSFGNEHSYLCTARCESRSLEKGIQVEIYSFPKDPEIHLSGPLEAGKPITVKCSVADVYPFDRLEIDLLKGDHLMKSQEFLEDADRKSLETKSLEVTFTPVIEDIGKVLVCRAKLHIDEMDSVPTVRQAVKELQVYISPGGGSDYKDDDDKGGGSDYKDDDDKGGGSDYKDDDDKGS
notes: as for B1
B4: 146R5 (ligand)
chain: FKIETTPESRYLAQIGDSVSLTCSTTGCESPLFFWRPLIDSPLNGKVTNEGTTSTLTMNPVSFGNEHSYLCTARCESRSLEKGIQVEIYSFPKDPEIHLSGPLEAGKPITVKCSVADVYPFDRLEIDLLKGDHLMKSQEFLEDADRKSLETKSLEVTFTPVIEDIGKVLVCRAKLHIDEMDSVPTVRQAVKELQVYISPGGGSDYKDDDDKGGGSDYKDDDDKGGGSDYKDDDDKGS
notes: as for B1
B5: 146R2 (ligand)
chain: FKIETTPESRYLAQIGDSVSLTCSTTGCESPLFSWRPLLDSPLNGKVTNEGTTSTLTMNPVSFGNEHSYLCTARCESRSLEKGIQVEIYSFPKDPEIHLSGPLEAGKPITVKCSVADVYPFDRLEIDLLKGDHLMKSQEFLEDADRKSLETKSLEVTFTPVIEDIGKVLVCRAKLHIDEMDSVPTVRQAVKELQVYISPGGGSDYKDDDDKGGGSDYKDDDDKGGGSDYKDDDDKGS
notes: as for B1
B6: 146R4 (ligand)
chain: FKIETTPESRYLAQIGDSVSLTCSTTGCESPLFFWRPQLDSPLNGKVTNEGTTSTLTMNPVSFGNEHSYLCTARCESRSLEKGIQVEIYSFPKDPEIHLSGPLEAGKPITVKCSVADVYPFDRLEIDLLKGDHLMKSQEFLEDADRKSLETKSLEVTFTPVIEDIGKVLVCRAKLHIDEMDSVPTVRQAVKELQVYISPGGGSDYKDDDDKGGGSDYKDDDDKGGGSDYKDDDDKGS
notes: as for B1
B7: 146R3 (ligand)
chain: FKIETTPESRYLAQIGDSVSLTCSTTGCESPLFFWRTLLDSPLNGKVTNEGTTSTLTMNPVSFGNEHSYLCTARCESRSLEKGIQVEIYSFPKDPEIHLSGPLEAGKPITVKCSVADVYPFDRLEIDLLKGDHLMKSQEFLEDADRKSLETKSLEVTFTPVIEDIGKVLVCRAKLHIDEMDSVPTVRQAVKELQVYISPGGGSDYKDDDDKGGGSDYKDDDDKGGGSDYKDDDDKGS
notes: as for B1
B8: 146R0 (Clone 146 with three spacer-FLAG tags, CHO-S supernatant) (ligand)
chain: FKIETTPESRYLAQIGDSVSLTCSTTGCESPLFFWRPLLDSPLNGKVTNEGTTSTLTMNPVSFGNEHSYLCTARCESRSLEKGIQVEIYSFPKDPEIHLSGPLEAGKPITVKCSVADVYPFDRLEIDLLKGDHLMKSQEFLEDADRKSLETKSLEVTFTPVIEDIGKVLVCRAKLHIDEMDSVPTVRQAVKELQVYISPGGGSDYKDDDDKGGGSDYKDDDDKGGGSDYKDDDDK
notes: assayed as concentrated, filtered crude supernatant

The target of this experiment is T1, human VLA4-Fc (alpha4-Fc/beta1-Fc heterodimer) (human).
T1 construct: Soluble heterodimer from CHO cells, Protein A purified; also called VLA-Fc
T1 sequence (chain, as listed by the source limits assumed, form in doubt, chain 1 of 2): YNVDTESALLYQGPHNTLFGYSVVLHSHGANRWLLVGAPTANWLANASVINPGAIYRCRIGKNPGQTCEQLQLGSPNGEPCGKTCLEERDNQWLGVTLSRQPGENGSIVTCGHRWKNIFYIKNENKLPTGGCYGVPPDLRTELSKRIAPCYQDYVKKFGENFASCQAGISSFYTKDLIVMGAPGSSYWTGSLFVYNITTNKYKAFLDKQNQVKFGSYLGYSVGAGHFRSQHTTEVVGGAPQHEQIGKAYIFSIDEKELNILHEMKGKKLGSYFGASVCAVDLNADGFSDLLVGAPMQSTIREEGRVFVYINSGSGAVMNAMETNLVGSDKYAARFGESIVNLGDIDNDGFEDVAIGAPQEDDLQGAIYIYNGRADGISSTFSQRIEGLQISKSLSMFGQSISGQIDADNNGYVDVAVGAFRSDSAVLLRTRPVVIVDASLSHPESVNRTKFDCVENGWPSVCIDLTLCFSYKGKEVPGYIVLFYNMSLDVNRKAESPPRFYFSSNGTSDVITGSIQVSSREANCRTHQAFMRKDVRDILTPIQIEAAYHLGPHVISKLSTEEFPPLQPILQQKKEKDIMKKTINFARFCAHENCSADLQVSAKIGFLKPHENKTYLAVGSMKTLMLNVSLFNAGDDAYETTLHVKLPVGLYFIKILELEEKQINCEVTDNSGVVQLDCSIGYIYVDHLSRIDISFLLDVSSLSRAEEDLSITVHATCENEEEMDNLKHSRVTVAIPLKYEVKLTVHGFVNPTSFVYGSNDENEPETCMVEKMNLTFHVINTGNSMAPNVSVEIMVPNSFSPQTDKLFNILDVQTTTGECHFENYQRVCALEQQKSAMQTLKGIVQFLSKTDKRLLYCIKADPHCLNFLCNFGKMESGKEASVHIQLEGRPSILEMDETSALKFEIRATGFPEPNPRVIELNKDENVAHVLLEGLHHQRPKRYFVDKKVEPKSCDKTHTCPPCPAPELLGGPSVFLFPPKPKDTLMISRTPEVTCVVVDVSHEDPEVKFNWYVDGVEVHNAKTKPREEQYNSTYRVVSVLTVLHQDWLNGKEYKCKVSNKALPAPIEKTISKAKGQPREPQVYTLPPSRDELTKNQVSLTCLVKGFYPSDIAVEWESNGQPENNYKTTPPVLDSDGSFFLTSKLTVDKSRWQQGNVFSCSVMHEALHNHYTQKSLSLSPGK
T1 sequence (chain, as listed by the source limits assumed, form in doubt, chain 2 of 2): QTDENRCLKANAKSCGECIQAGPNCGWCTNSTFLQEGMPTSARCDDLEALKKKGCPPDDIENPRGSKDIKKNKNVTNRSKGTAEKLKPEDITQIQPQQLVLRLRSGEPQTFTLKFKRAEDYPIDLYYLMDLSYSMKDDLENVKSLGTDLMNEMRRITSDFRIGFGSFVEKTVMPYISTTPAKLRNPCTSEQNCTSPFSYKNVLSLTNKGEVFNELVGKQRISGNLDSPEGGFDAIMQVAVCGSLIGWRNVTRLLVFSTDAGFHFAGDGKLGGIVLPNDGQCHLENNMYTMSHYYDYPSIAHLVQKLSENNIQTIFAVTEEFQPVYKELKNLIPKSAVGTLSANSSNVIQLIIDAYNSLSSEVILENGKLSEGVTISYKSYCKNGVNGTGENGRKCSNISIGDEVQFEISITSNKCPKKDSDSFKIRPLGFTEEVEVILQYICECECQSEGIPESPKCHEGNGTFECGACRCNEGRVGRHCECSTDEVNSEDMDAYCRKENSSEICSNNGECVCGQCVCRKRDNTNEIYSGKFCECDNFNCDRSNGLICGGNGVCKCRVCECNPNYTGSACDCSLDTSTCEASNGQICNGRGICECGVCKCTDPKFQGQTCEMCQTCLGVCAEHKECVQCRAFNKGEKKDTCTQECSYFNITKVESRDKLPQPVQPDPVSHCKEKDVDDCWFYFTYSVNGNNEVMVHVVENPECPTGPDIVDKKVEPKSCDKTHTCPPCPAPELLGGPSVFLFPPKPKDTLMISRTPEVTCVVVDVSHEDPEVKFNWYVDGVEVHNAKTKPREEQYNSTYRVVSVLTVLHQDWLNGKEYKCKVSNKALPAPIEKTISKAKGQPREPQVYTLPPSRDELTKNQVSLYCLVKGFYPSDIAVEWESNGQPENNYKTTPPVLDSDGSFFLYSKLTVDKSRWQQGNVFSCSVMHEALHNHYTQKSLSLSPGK
Nature of the experiment: SPR (BIACORE), crude CHO-S supernatant on VLA4-Fc.
For the molecule B1, the “fold weaker binding relative to 146R0 (KD(variant)/KD(146R0))” value (“fold weaker binding relative to 146R0” below) came to 1 fold.
As for B2, the “fold weaker binding relative to 146R0” value was 2.3 fold.
The same measure for B3: 1.1 fold; for B4: 1.2 fold.
With B5 the figure was 2.7 fold; with B6, 2.6 fold.
As to B7, the “fold weaker binding relative to 146R0” value was 1.3 fold.
As for B8, the “fold weaker binding relative to 146R0” value worked out at 1 fold.

(Values after patent US20120135912A1 (PERSEID THERAPEUTICS, published 2012).)
